Data as given in patent US12364734B2, “Methods of treating Alzheimers disease” (NUtech Ventures, priority 2020, dated 2025).

Key:
[1] = target: T1, Epstein-Barr virus latent membrane protein 1 (LMP1) (Epstein-Barr virus, UniProt P03230); assay: LMP1 expression in HEK293 cells co-transfected with P2 peptide (specificity control); format: cell-based; conditions: HEK293 co-transfected with LMP1 expression plasmid and P2 peptide with PULSin
T1 construct: expressed in transfected cells; host or cells: HEK293
Source text: FIGS. 6A-6B: FIG. 6A. HEK293 cells were transfected with EBV LMP1 expression plasmid or vector control (pcDNA3). One day later, the cells were infected with or without ZIKV overnight as in FIG. 2a. Western blots were used for detection of LMP1 and tubulin simultaneously. The images in the same box indicate they were derived from the same gels. The identity of the proteins is as shown. FIG. 6B. HEK293 cells were co-transfected with different amounts of LMP1 expression plasmid and P2 peptide, or BSA protein ([…]) with PULSin reagents. One day later, the expression of APP and tubulin were examined simultaneously by Western Blot analyses. The identity of the proteins is as shown.
We suspected that the loop in the specific structure of ZIKV E protein was responsible for the potential interaction with APP (FIGS. 1A and 1B). A peptide (P2) derived from the potential binding site, the β-hairpin region, was synthesized with sequence optimization (FIG. 1C). Located in the core region of the ZIKV E protein and being hydrophobic, the eight amino acid stretch, EYRIMLSV, in the β-hairpin region of E protein was not included in the P2 sequence. Furthermore, the P2 peptide could potentially form a similar structure as in the native protein by including extra amino acids in the C-terminus (FIGS. 1B and 1C). […]

[2] = Water solubility of the peptide; format: physicochemical
APP [3] = target: T2, APP (Homo sapiens, UniProt P05067); assay: P2 effect on APP processing and amyloid formation (Western blot, immunofluorescence); format: cell-based
Target sequence in this assay (P05067 18-770, species assumed): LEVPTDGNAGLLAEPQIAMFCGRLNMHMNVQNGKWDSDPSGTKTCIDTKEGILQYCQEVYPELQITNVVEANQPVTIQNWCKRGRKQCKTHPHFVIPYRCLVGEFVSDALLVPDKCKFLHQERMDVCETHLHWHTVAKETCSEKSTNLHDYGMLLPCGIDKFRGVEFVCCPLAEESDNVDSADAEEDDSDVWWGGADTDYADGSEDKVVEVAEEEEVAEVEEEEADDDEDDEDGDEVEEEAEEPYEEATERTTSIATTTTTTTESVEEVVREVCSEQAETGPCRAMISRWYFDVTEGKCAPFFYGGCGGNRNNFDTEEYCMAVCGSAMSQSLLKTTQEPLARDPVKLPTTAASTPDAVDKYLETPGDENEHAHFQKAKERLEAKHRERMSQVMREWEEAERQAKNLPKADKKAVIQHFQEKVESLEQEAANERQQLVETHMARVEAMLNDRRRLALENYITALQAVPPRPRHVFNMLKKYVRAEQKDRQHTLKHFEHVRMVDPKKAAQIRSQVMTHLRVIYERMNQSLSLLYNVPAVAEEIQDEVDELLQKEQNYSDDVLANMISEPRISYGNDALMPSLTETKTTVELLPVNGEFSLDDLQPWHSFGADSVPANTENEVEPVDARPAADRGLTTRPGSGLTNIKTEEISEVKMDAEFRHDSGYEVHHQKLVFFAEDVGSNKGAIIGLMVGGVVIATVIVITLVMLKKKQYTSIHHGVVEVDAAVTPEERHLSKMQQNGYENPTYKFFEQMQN

APP [4] = target: T2, APP; assay: APP expression in HEK293 cells with P2 peptide (Western blot); format: cell-based; design: expressed in transfected cells; host or cells: HEK293
Target sequence in this assay (P05067 18-695 isoform P05067-4 limits assumed): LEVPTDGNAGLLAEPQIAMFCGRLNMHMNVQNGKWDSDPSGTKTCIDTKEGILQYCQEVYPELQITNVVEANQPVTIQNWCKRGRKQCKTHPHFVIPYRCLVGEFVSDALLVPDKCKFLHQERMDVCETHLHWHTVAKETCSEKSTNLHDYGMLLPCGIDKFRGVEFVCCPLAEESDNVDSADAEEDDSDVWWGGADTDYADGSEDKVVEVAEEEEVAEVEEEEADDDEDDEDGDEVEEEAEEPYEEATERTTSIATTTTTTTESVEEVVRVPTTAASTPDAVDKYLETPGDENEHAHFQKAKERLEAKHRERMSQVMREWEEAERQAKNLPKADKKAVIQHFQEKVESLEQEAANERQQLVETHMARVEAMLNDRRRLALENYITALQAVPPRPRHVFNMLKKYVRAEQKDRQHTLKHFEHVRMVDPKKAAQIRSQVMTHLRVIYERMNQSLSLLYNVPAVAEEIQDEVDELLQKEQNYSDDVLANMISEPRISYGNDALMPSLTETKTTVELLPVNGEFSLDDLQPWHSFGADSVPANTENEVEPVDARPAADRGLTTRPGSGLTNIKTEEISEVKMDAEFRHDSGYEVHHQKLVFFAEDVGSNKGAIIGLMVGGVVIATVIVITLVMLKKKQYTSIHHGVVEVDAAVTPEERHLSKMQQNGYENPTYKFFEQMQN

APP [5] = target: T2, APP; assay: APP protein stability assay with cycloheximide (CHX) in HEK293 cells; format: cell-based; design: expressed in transfected cells; host or cells: HEK293; conditions: HEK293 co-transfected with APP plasmid plus P2 or BSA; CHX for one hour
Target sequence in this assay (P05067 18-695 isoform P05067-4 limits assumed): as above

T1 sequence (P03230 whole entry): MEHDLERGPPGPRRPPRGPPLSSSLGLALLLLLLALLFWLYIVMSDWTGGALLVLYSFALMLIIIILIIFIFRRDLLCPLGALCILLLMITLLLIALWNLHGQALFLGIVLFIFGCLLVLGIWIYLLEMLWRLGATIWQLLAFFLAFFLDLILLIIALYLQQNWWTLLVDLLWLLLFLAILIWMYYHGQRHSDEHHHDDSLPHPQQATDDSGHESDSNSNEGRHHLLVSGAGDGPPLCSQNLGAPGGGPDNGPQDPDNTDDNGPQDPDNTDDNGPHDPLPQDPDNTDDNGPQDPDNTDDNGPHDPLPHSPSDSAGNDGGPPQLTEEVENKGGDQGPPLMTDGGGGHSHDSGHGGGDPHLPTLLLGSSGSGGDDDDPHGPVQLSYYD

With “HGSQHSGMIVNDTGHETDENRAKVEITPNSPRAEATLGGFGSLGL (listed as Zika virus) [P2, peptide derived from the β-hairpin region of ZIKV E protein, without EYRIMLSV stretch]” the LMP1 expression [1] was “could not be enhanced”, the water solubility [2] was “water-soluble” and the APP metabolic processing (APP [3]; Example 4, FIG. 13) was “block APP metabolic processing”. For the same sequence, the “interaction with APP” value (APP [3]; Example 4, FIG. 13) was “interacts with APP”, the amyloid formation (APP [3]; Western blot (FIG. 13A) and immunofluorescence (FIG. 13B)) was “reduces amyloid formation” and the APP expression (APP [4]; HEK293 co-transfected with APP695 plasmid (0.5 μg) and P2 peptide (1 μg) with PULSin, compared with BSA control, one day later) was “could increase the expression of APP”. For the same sequence, the APP expression (APP [4]; treating cells directly with peptide (data not shown)) was “could not enhance APP expression” and the “mechanism of APP enhancement (APP protein stability)” value (APP [5]) was “a similar mechanism to ZIKV was established”.
